Measured values published in US20200283475A1.

Key:
[1] = biological target: human polyclonal IgG (Gammanorm) (human); test: column breakthrough, agarose beads, ligand 9.7 mg/ml, 6 min residence
[2] = biological target: human polyclonal IgG (Gammanorm) (human); test: column breakthrough, ligand 9.7 mg/ml; after 24 h 1.0 M NaOH
[3] = biological target: human polyclonal IgG (Gammanorm) (human); test: column breakthrough, ligand 9.7 mg/ml; after 24 h 0.5 M NaOH
[4] = biological target: human polyclonal IgG (Gammanorm) (human); test: column breakthrough; ratio to reference Zvar4
[5] = biological target: human polyclonal IgG (Gammanorm) (human); test: column breakthrough, agarose beads, ligand 9.7 mg/ml, 6 min residence; remark: listed apart in the source
[6] = biological target: human polyclonal IgG (Gammanorm) (human); test: column breakthrough, 1.0 M NaOH; ratio to reference Zvar4
[7] = biological target: human polyclonal IgG (Gammanorm) (human); test: SPR, ligand on chip; signal left after 96-100 CIP cycles 0.5 M NaOH
[8] = biological target: human polyclonal IgG (Gammanorm) (human); test: SPR; ratio of remaining capacity to reference Zvar1
[9] = biological target: IgG1 monoclonal antibody (probe molecule in the Biacore kinetics); test: SPR (Biacore), ligand on CM5 chip, IgG1 mAb as probe; exponent read as 10^-5
[10] = biological target: IgG1 monoclonal antibody (probe molecule in the Biacore kinetics); test: SPR (Biacore), ligand on CM5 chip, IgG1 mAb as probe
[11] = biological target: human polyclonal IgG (Gammanorm) (human); test: column breakthrough, agarose beads, ligand […], 6 min residence
[12] = biological target: human polyclonal IgG (Gammanorm) (human); test: column breakthrough, ligand […]; after 24 h 1.0 M NaOH
[13] = biological target: human polyclonal IgG (Gammanorm) (human); test: column breakthrough, ligand 7.2 mg/ml; after 24 h 0.5 M NaOH
[14] = biological target: human polyclonal IgG (Gammanorm) (human); test: column breakthrough, agarose beads, ligand 7.2 mg/ml, 6 min residence
[15] = biological target: human polyclonal IgG (Gammanorm) (human); test: column breakthrough, agarose beads, ligand […], 6 min residence; remark: listed apart in the source
[16] = biological target: human polyclonal IgG (Gammanorm) (human); test: column breakthrough, ligand […]; after 24 h 0.5 M NaOH
[17] = biological target: human polyclonal IgG (Gammanorm) (human); test: pH 6-3 citrate gradient elution; hexamer SEQ ID NO 33 on agarose; peak 2
[18] = biological target: human polyclonal IgG (Gammanorm) (human); test: SPR, ligand on chip; CIP cycles 0.5 M NaOH
[19] = biological target: human polyclonal IgG (Gammanorm) (human); test: pH 6-3 citrate gradient elution; hexamer SEQ ID NO 33 on agarose; peak 1
[20] = biological target: human polyclonal IgG (Gammanorm) (human); test: SPR; ratio to reference (the text names Zvar6)
[21] = biological target: human polyclonal IgG (Gammanorm) (human); test: column breakthrough, agarose beads, ligand 10.8 mg/ml, 6 min residence
[22] = biological target: human polyclonal IgG (Gammanorm) (human); test: column breakthrough, ligand 10.8 mg/ml; after 24 h 0.5 M NaOH

Q: What does the source list for “Zvar(N11K,H18K,S33K,D37E,A42R,N43A,L44I,K50R,L51Y)4 with an additional N-terminal cysteine (designed binder)”?
A: Initial IgG capacity Qb10 [1]: 62.1 mg/mL; Remaining IgG capacity Qb10 after six 4 h cycles [2]: 48.1 mg/mL; Remaining IgG capacity after six 4 h cycles (%) [2]: 77%; Remaining IgG capacity Qb10 after six 4 h cycles [3]: 52 mg/mL; Remaining IgG capacity after six 4 h cycles (%) [3]: 92%; Capacity retention relative to ref. after six 4 h cycles [4]: 1.53; Initial IgG capacity Qb10 [5]: 56.3 mg/mL; Capacity retention relative to ref. after six 4 h cycles [6]: 1.44

Q: Which Capacity after 96-100 cycles [7] does the source give for “Zvar(Q9A,N11E,Q40V,A42K,N43A,L44I)1 (designed binder)” here?
A: 66%

Q: And the Capacity relative to reference [8]?
A: 1.4

Q: And the koff [9]?
A: 0.000437 s⁻¹

Q: What about the Kd [10] of the same substance?
A: 1.07 nM

Q: What about the kon [10] of the same substance?
A: 410000 M⁻¹ s⁻¹

Q: How did the Initial IgG capacity Qb10 [11] turn out when “Zvar(Q9A,N11E,Q40V,A42K,N43A,L44I)4 with an additional N-terminal cysteine (designed binder)” was run?
A: 60.3 mg/mL

Q: And the Remaining IgG capacity Qb10 after six 4 h cycles [12]?
A: 56 mg/mL

Q: And the Remaining IgG capacity after six 4 h cycles (%) [12]?
A: 93%

Q: And the Remaining IgG capacity Qb10 after six 4 h cycles [13]?
A: 44.2 mg/mL

Q: What about the Remaining IgG capacity after six 4 h cycles (%) [13] of the same substance?
A: 90%

Q: And the Initial IgG capacity Qb10 [14]?
A: 49 mg/mL

Q: What about the Capacity retention relative to ref. after six 4 h cycles ([4]; ligand content 7.2 mg/ml) of the same substance?
A: 1.5

Q: And the Initial IgG capacity Qb10 [15]?
A: 56.3 mg/mL

Q: What about the Remaining IgG capacity Qb10 after six 4 h cycles [16] of the same substance?
A: 53.6 mg/mL

Q: And the Remaining IgG capacity after six 4 h cycles (%) [16]?
A: 95%

Q: And the Capacity retention relative to ref. after six 4 h cycles [6]?
A: 1.67

Q: Which results are given for “Zvar(Q9A,N11E,Q40V,A42K,N43A,L44I)6 (designed binder)”?
A: Elution pH [17]: 3.81 pH; Remaining capacity 100 cycles (%) [18]: 87%; Elution pH [19]: 4.24 pH; Capacity relative to ref. 100 cycles [20]: 1.3

Q: How did the Initial IgG capacity Qb10 [21] turn out when “Zvar(Q9A,N11K,H18K,D37E,A42R)4 with an additional N-terminal cysteine (designed binder)” was run?
A: 56.9 mg/mL

Q: What about the Remaining IgG capacity Qb10 after six 4 h cycles [22] of the same substance?
A: 52.5 mg/mL

Q: And the Remaining IgG capacity after six 4 h cycles (%) [22]?
A: 92%

Q: What about the Capacity retention relative to ref. after six 4 h cycles [4] of the same substance?
A: 1.3
